In the Human Domainome abundance scans (Beltran et al. 2025):

B1: POU domain, class 5, transcription factor 1, residues 134 to 212; numbered along this chain, Q01860 (parent)
chain: EESQDIKALQKELEQFAKLLKQKRITLGYTQADVGLTLGVLFGKVFSQTTICRFEALQLSFKNMCKLRPLLQKWVEEAD

Variants of: B1
Assay: abundance fitness (aPCA) (normalised: wild type 0, dead -1); higher = more abundant; growth selection in yeast, the domain comes from the species named
Details: Homo sapiens

Abundance fitness: each site, then its substitutions
L9: C -0.123, G -0.127, Q 0.106, E 0.017, P 0.195, A -0.066, F -0.316, V 0.044, T -0.171, R -0.023, Y -0.164, H -0.215, W -0.254, K 0.28, S 0.136, N -0.086, D -0.385, I -0.331
Q10: T -0.184, A -0.169, P -0.214, D -0.128, N -0.086, I -0.373, Y 0.042, C -0.477, W 0.305, R 0.137, G -0.239, H -0.31, F 0.117, S -0.111, E -0.354, M -0.063, L -0.214
I6: C -0.417, Q 0.063, T 0.195, K 0.359, V -0.749, F 0.052, W -0.351, M 0.1, D 0.122, E -0.452, S -0.054, L -0.143, A 0.005, N -0.082, P -0.015, G -0.122
Y29: V -0.216, I -0.771, A -0.41, Q 0.068, W -0.472, D -0.422, G -0.56, S -0.717, L -0.055, R -0.383, H 0.148, P -0.407, F -0.761, C -0.64, M 0.18
I25: K -0.131, L 0.249, V 0.264, R -0.078, E -0.207
G28: Q -0.389, A -1.06, N -0.34, W -0.813, S -0.839, K -0.569, V -0.787, M -0.465, T -0.738, R -0.555, L -0.76, H 0.386
K11: S 0.019, M 0.076, E -0.031, P 0.23, V -0.21, A -0.201, Q 0.057, L -0.153, W -0.198, G -0.168, I 0.062, N 0.048, Y 0.067, D 0.168, T -0.388, C -0.369
K21: A -0.392, Q -0.2, V -0.373, G -0.707, P -0.353, R -0.191, S -0.189
L19: G -0.063, K 0.373, W -0.181, R -0.284, T -0.49, A -0.49, C 0.164, Q 0.04, E -0.447
L20: S -0.399, R -0.299, A -0.704, V -0.056, E -0.313, G -0.801, W -0.741, M -0.452, P -0.303
T30: V -0.392, A -0.667, E -1.06, H -0.437, R -0.249, L -0.853, M -0.526, Q -0.664, S 0.082
F16: E -0.438, G -0.522, R -0.394, W -0.341, P -0.023, A -0.191, L -0.133, C -0.23
E12: L -0.312, Y -0.4, S -0.094, H -0.051, P -0.473, V -0.065, F 0.341, R -0.07, D -0.357, M -0.38, T -0.405, A -0.345, G -0.35, I -0.112, Q -0.185, W -0.226, K 0.254
R24: Q -0.391, S -0.361, V -0.068, A -0.859
E14: W -0.367, R 0.063, L -0.168, Y 0.076, T -0.352
